Experiment: label from the status in PepcDB records

For “MAIARALRDELSFGAVSRRENPVSAHIPYSRHVSDEVIKTQDGMLMSFVHMSGLCFETIDIAEINSRLLGRNDLIRGLANSRYAIYSHIVRREVKPAIESSFENKFCQELDQRYTAALRTQRMFVNDIYLTIVRRELQGTVGTADLVIRKLLGRRAADGRSSSEERALIELTDVMKAVRESLQAYGARVLTVVKRNDVWHSEPLEFLVQLVNGGFPRPMALPRMKLAEALATKRLFFGPNALEIRGAFPGETRYGAIISVGEYPSITGPGMLNPMLKVPHEFIVTQSFAIIDKPQALTQMERVGRKIDMSDEADSIVGDQLGEARDELLSSEALYGLHHLTVLCLGKTMDDVARCVTDVGTALTEVSALWVREDLNCEPAFWATLPGNFAYVARKSMISSKNMAGFSAFHNYPSGRTGGVHWGMPISVLETTSQTAYFFNFHVRDLGNFTLNGPSGSGKTVLLGFLAAQAQRITPRPKLVMIDKDRGLDIFVRSLGGRYEVLKAGEPSGFNPLRLPDTPRNREFLFQLFSFILRRSDGYAHSTREEQVIRNAIAQVASAPPEGRTMEEFAELLRGAMRAGDDDLYSRLQPWMRPDQRGWLFNNAEDSFSMSSIFGFDMTSVLSDATTSTAALLYIFHRIEELLDGQPVMIFLDEGWKLLDNDIFSYFIKDKLKTIRKLNGIIGFGTQSAADIVKSSIANTLIEQTPTNIFFPNPKADEESHRAFGLSEREIKWIRETPPEARKFLIKHDQDSVIARLNLGAMPDAIKILSGRIETVQELDALRARVGDDPDVWLPVFLGRDPE”, the protein production was “failed”.

With “METMFDTLLQLPLFQGLCHEDFTSILDKVKLHFIKHKAGETIIKSGNPCTQLCFLLKGEISIVTNAKENIYTVIEQIEAPYLIEPQSLFGMNTNYASSYVAHTEVHTVCISKAFVLSDLFRYDIFRLNYMNIVSNRAQNLYSRLWDEPTLDLKSKIIRFFLSHCEKPQGEKTFKVKMDDLARCLDDTRLNISKTLNELQDNGLIELHRKEILIPDAQKLL” the protein production was “not failed”.

For “MSPAIITLLILVVAIIIFISDRLPMGLVAFMVPMALYFFGVIGVKDIFASIVNENVILIIAMCVLGAAFFKTGLAWQSSKILLKYAKTERSLSVLIFMISGVMSAFVSNSGTVAVLIPIVLGIAGTSQIKPIKLLMPLVFGATIGADISIIGSPGNLIAKNTIETFSKGNLSVPFFEYAKIGIPLMIACALLLFFFGSRLIPDRDGHEQSDVQMDYSHIPEWHKLLTLIVFVLAILGMVATDYVKFLPPIHIIACCAAIVLVLTGVLNQKETFNSFETLTVFMLAFMMPLGAALNSTGAGEMIARAVISVTGNSGVIVIMASLWILTWALTQVMSNTAACTLLCPVGWTIAQSIGADPRAVVIAIFIASSVAVCTPMAIPANSMIIGPGNVKFKDFLKPGLAISFVCFIVSMILLPVFYPFY”, the protein production was “failed”.

With “MEGSQQTITSKQLVRMLKDASRGSKGKGSGEMKFCFLIGAGASISSGIPSGAKLAWDWLQQIKEDCDGEDFEDWKIEIKMPDQHIEERVGEFYPEIYEKRFGHAPETGYDYIRGLMEGREPSLGYLILANIMVREKHNVVITTNFDNLLEDAIRTYTKEKPFIAGHEALADYVPKRSDRPIILKLHRDLFLQPFSDQLNTDILQAAWESILGKFLSDYHLIVLGYGGNDGSLMNYLLKLKNRKPIYWCVRNTDKATSKSLWNTLSPKAKRLLKNDGYLVPIDDFDRFMYDCYAALGYKFLEGIEKIEKPKSIHEILKPNYARIESIQTQLRQLSQTEEELSKESFQSIKSFLPDSWMWILKANQEKDIDKKDKIYREGIAKYPQDANLLGDYADFLCDICHD” the protein production was “not failed”.
